Where “and” joins values, the source holds several entries; their conditions need not be identical. Equal values may be shown once. Read-outs that look alike come from different tables or passages of the source.
Assays:
[1] = molecular target: T1, SARS-CoV-2 spike protein receptor binding domain (RBD2) (SARS-CoV-2, UniProt P0DTC2 319-537); assay: flow cytometry, yeast-displayed scFv, titration of biotinylated antigen
[2] = molecular target: T1, SARS-CoV-2 spike protein receptor …
[3] = molecular target: T1, SARS-CoV-2 spike protein receptor …; assay: SPR sandwich binning, ligand E01
[4] = molecular target: T1, SARS-CoV-2 spike protein receptor …; assay: SPR sandwich binning, ligand F07
[5] = molecular target: T1, SARS-CoV-2 spike protein receptor …; assay: SPR, immobilized antibody, RBD injected, 1:1 fit
[6] = molecular target: T1, SARS-CoV-2 spike protein receptor …; assay: SPR sandwich binning, ligand B04
[7] = molecular target: T2, human ACE2 receptor on HEK cells (Human ACE2 293 cell line) (human, UniProt Q9BYF1 18-805); assay: fluorescence microscopy, PE-labelled IgG on HEK-ACE2 cells without RBD2-sfGFP
T2 construct: whole, on cells; also called HEK-ACE2; ACE2 293 cells

[8] = molecular target: T1, SARS-CoV-2 spike protein receptor …; remark: listed apart in the source
[9] = molecular target: T1, SARS-CoV-2 spike protein receptor …; assay: SPR sandwich binning, ligand Anti-His
[10] = molecular target: T1, SARS-CoV-2 spike protein receptor …; assay: SPR sandwich binning, ligand S01
[11] = molecular target: T1, SARS-CoV-2 spike protein receptor …; assay: SPR sandwich binning, ligand G07
[12] = molecular target: T1, SARS-CoV-2 spike protein receptor …; assay: SPR sandwich binning, ligand NN54
[13] = molecular target: T1, SARS-CoV-2 spike protein receptor …; assay: SPR sandwich binning, ligand CR3022
[14] = molecular target: SARS-CoV-2 spike protein on whole SARS-CoV-2 virus (SARS-CoV-2, UniProt P0DTC2 14-1273); assay: cell-based or functional assay
[15] = molecular target: T1, SARS-CoV-2 spike protein receptor …; assay: SPR sandwich binning, ligand H01
[16] = molecular target: T1, SARS-CoV-2 spike protein receptor …; assay: SPR
[17] = molecular target: T1, SARS-CoV-2 spike protein receptor …; assay: SPR sandwich binning, ligand H05
[18] = molecular target: T1, SARS-CoV-2 spike protein receptor …; assay: SPR sandwich binning, ligand E08
[19] = molecular target: T1, SARS-CoV-2 spike protein receptor …; assay: flow cytometry, yeast-displayed scFv
[20] = molecular target: T1, SARS-CoV-2 spike protein receptor …; remark: listed apart in the source
[21] = molecular target: T1, SARS-CoV-2 spike protein receptor …; remark: listed apart in the source
[22] = molecular target: T1, SARS-CoV-2 spike protein receptor …; assay: flow cytometry, yeast-expressed scFv

T2 sequence (Q9BYF1 18-805): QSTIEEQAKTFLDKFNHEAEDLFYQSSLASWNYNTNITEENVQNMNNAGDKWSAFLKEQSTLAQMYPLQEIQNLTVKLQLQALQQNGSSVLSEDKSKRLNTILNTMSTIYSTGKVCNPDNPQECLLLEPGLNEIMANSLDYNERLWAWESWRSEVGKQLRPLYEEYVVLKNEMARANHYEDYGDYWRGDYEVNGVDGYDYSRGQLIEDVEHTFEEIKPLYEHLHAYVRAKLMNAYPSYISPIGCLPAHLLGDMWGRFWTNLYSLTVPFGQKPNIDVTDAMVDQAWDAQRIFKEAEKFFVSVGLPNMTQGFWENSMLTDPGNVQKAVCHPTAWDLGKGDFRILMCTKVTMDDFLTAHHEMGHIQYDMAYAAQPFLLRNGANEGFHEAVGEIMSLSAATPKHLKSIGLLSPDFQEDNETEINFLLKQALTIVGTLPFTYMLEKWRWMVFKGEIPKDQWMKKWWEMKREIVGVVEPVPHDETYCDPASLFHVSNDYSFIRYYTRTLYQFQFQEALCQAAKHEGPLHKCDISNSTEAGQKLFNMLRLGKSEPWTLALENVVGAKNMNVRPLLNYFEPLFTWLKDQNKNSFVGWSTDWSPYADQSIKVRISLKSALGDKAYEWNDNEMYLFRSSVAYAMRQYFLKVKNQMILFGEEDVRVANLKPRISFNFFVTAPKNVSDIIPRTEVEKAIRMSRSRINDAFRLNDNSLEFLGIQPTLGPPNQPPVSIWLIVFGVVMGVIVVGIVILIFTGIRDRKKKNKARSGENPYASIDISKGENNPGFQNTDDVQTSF

B1: R26 scFv (scFv)
scFv: SYELTQPPSVSVAPGQTATITCGGKNIESKSVHWYQQKPGQAPVLVVSDDTDRASGIPERFSGSNSGGAATLTISRVEAGDEADYYCQVWDSPSDHYVFGPGTKLTVLSGGSTITSYNVYYTKLSSSGTQVQLVESGGGVVQPGRSLRLSCAASGFTFSSYAMHWVRQAPGKGLEWVAVISYDGSNKYYADSVKGRFTISRDKAKNTLYLQMNSLRGEDTAVYYCARELSYYDSSGYLRGDWYFDLWGRGTLVTVSS
[1]
  Kd: 65.3 nM
[2]
  Kd: 65.3 nM

B2: F07 IgG1 (antibody, V domains shown)
VH: QVQLVQSGAEVKKPGSSVRVSCKVSGYTFTGYYMHWVRQAPGQGLEWMGIINPSGGSTSYAQKFQGRVTMTRDTSTSTVYMELSSLRSEDTAVYYCARVRVGASDAFDIWGQGTMVTVSS
VL: SYVLTQPPSVSVAPGQTARITCGGNNIGSKSVHWYQQKPGQAPVLVVYDDSDRPSGIPERFSGSNSGNTATLIISRVEAGDEADYYCQVWDSSSVHYVFGTGTKLTVL
[3]
  normalized analyte binding to RBD2 held by the immobilized ligand: 1.9
[4]
  normalized analyte binding to RBD2 held by the immobilized ligand: 0.07
[5]
  Kd: 300 nM
[6]
  normalized analyte binding to RBD2 held by the immobilized ligand: -0.05
[7]
  binding result: no binding (tested: 1 ug/mL)
[8]
  Kd: 300 nM
[9]
  normalized analyte binding to RBD2 held by the immobilized ligand: 1.48
[10]
  normalized analyte binding to RBD2 held by the immobilized ligand: 1.28
[11]
  normalized analyte binding to RBD2 held by the immobilized ligand: 0.14
[12]
  normalized analyte binding to RBD2 held by the immobilized ligand: 2.34
[13]
  normalized analyte binding to RBD2 held by the immobilized ligand: 0.9
[14]
  NT50 (nM), half neutralization titer: 45.2 nM
  Nmax (%), neutralization maximum: 74.7%
[15]
  normalized analyte binding to RBD2 held by the immobilized ligand: 0.1
[16]
  Kd: 300 nM
[17]
  normalized analyte binding to RBD2 held by the immobilized ligand: 1.39
[18]
  normalized analyte binding to RBD2 held by the immobilized ligand: 1.78

B3: H05 IgG1 (antibody, V domains shown)
VH: QVQLVQSGAEVKKPGSSVKVSCKASGGTFSSYAISWVRQAPGQGLEWMGGIIPIFGTANYAQKFQGRVTITADESTSTAYMELSSLRSEDTAVYYCARSIFGVVIISHADGYYYGMDVWGQGTTVTVSS
VL: SYVLTQPPSVSVAPGQTARITCGANNIGRISVHWYQQKPGQAPVLVVYDDSDRPSGIPERFSGSNFGNTATLTISRVEAGDEADYYCQVWDSYSDHVIFGGGTKLTVL
notes: also called H5; HO5
[3]
  normalized analyte binding to RBD2 held by the immobilized ligand: 1.81
[4]
  normalized analyte binding to RBD2 held by the immobilized ligand: 0.9
[5]
  Kd: 51 nM
[6]
  normalized analyte binding to RBD2 held by the immobilized ligand: 1.75
[8]
  Kd: 46 nM
[9]
  normalized analyte binding to RBD2 held by the immobilized ligand: 1.35
[10]
  normalized analyte binding to RBD2 held by the immobilized ligand: 1.73
[11]
  normalized analyte binding to RBD2 held by the immobilized ligand: 0.9
[13]
  normalized analyte binding to RBD2 held by the immobilized ligand: -0.15
[15]
  normalized analyte binding to RBD2 held by the immobilized ligand: -0.1
[16]
  Kd: 51 nM
[17]
  normalized analyte binding to RBD2 held by the immobilized ligand: -0.17
[18]
  normalized analyte binding to RBD2 held by the immobilized ligand: -0.12

B4: G07 scFv (scFv)
scFv: QSVLIQPPSASGTPGQRVTISCSGSNSNFGSNSVSWYQQRPGTAPKLLIEGNNQRPSGVPERFSGSKSGTSASLAISGLQSEDEAEYSCASWDDSLNAFVFGPGTKLTVLSGGSAITSYNVYYTKLSSSGTQVQLVQSGAEVKKPGESLKISCKGSGYSFTSYWIGWVRQMPGKGLEWMGIIYPGDSDIRYSPSFQGQVTISADKSFSSAYLQWSSLKASDTAMYYCARLGATGAFDIWGQGTTVTVSS
[19]
  Kd: 60.3 nM
[1]
  Kd: 60.3 nM
[20]
  Kd: 60.4 nM

B5: H01 scFv (scFv)
scFv: QPGLTQPPSVSLAPGQTARITCGGNNIGSKSVHWYQQKPGQAPVLVVYDDSDRPSGIPERFSGSNAGNTATLTISRVEAGDEADYYCQVWDSRSDQYVFGTRTKLTVLSGGSTITSYNVYYTKLSSSGAQVTLKESGPVLVKPTETLTLTCTVSGFSLSNARMGVSWIRQPPGKALEWLAHIFSNGEKSYSTSLKSRLTISKDTSKSQVVLTMTNMDPVDTATYYCARTLDYYDSSGYLVGGAFDIWGQGTMVTVSS
notes: also called H1
[19]
  Kd: 66.4 nM
[1]
  Kd: 66.4 nM
[20]
  Kd: 66.4 nM

B6: S01 IgG1 (antibody, V domains shown)
VH: QVQLVESGGGLVKPGGSLRLSCAASGFTVGSNYMSWVRQAPGKGLEWVSVIYSGGSTYYADSVKGRFTISRDNSKNTLYLQMNSLRAEDTAVYYCARGSSGAWYFDLWGRGTLVTVSS
VL: EIVMTQSPSSLSASVGDSVTITCQASQDISNYLNWYQQKPGKAPKLLIYDASNLETGVPSRFSGGGSGTDFTLTITSLQPEDIATYYCQQYDNFPPTFGPGTKVDIK
notes: also called 501
[3]
  normalized analyte binding to RBD2 held by the immobilized ligand: -0.13
[4]
  normalized analyte binding to RBD2 held by the immobilized ligand: 0.48
[5]
  Kd: 170 nM
[6]
  normalized analyte binding to RBD2 held by the immobilized ligand: 0.06
[7]
  binding result: no binding (tested: 1 ug/mL)
[9]
  normalized analyte binding to RBD2 held by the immobilized ligand: 1
[10]
  normalized analyte binding to RBD2 held by the immobilized ligand: -0.03
[12]
  normalized analyte binding to RBD2 held by the immobilized ligand: 1.64
[13]
  normalized analyte binding to RBD2 held by the immobilized ligand: 1.39
[14]
  NT50 (nM), half neutralization titer: 14.6 nM
  Nmax (%), neutralization maximum: 106%
[15]
  normalized analyte binding to RBD2 held by the immobilized ligand: -0.03
[16]
  Kd: 170 nM
[17]
  normalized analyte binding to RBD2 held by the immobilized ligand: 1.2
[18]
  normalized analyte binding to RBD2 held by the immobilized ligand: 1.79
[21]
  Kd: 174 nM

B7: H05 scFv (scFv)
scFv: SYVLTQPPSVSVAPGQTARITCGANNIGRISVHWYQQKPGQAPVLVVYDDSDRPSGIPERFSGSNFGNTATLTISRVEAGDEADYYCQVWDSYSDHVIFGGGTKLTVLSGGSTITSYNVYYTKLSSSGTQVQLVQSGAEVKKPGSSVKVSCKASGGTFSSYAISWVRQAPGQGLEWMGGIIPIFGTANYAQKFQGRVTITADESTSTAYMELSSLRSEDTAVYYCARSIFGVVIISHADGYYYGMDVWGQGTTVTVSS
notes: also called H5
[19]
  Kd: 16.7 nM
[1]
  Kd: 16.7 nM
[20]
  Kd: 16.7 nM

B8: R04 scFv (scFv)
scFv: EIVMTQSPSSLSASVGDRVTITCQASQDISNYLNWCQQKPGKAPKLLIYDASNLETGVPSRFSGSGSGTGFTFTISSLQPEDFATYYCQQSYSTPYTFGQGTKVEIKSGGSTITSYNVNYTKLSSSGAQVQLQQSGPGLVKSSQTLSLTCAISGDSVSSNGAAWHWIRQSPSRGLEWLGRTYYRSGWYNDYAVSVKSRITINQDTSKNQFSLQLNSVTPEDTAVYFCAREGGGGRMDVWSQGTTVTVSS
[19]
  Kd: 293 nM
[1]
  Kd: 293 nM
[2]
  Kd: 293 nM
[22]
  Kd: > 280 nM and < 421 nM and 423 nM

B9: S01 scFv (scFv)
scFv: EIVMTQSPSSLSASVGDSVTITCQASQDISNYLNWYQQKPGKAPKLLIYDASNLETGVPSRFSGGGSGTDFTLTITSLQPEDIATYYCQQYDNFPPTFGPGTKVDIKSGGSTITSYNVYYTKLSSSDTQVQLVESGGGLVKPGGSLRLSCAASGFTVGSNYMSWVRQAPGKGLEWVSVIYSGGSTYYADSVKGRFTISRDNSKNTLYLQMNSLRAEDTAVYYCARGSSGAWYFDLWGRGTLVTVSS
notes: also called 501
[19]
  Kd: 44.1 nM
[1]
  Kd: 44.1 nM
[2]
  Kd: 44.8 nM

Reference: patent US12018066 (TRIAD NATIONAL SECURITY, dated 2024)
